Experimental data taken from the Human Domainome abundance scans (Beltran et al. 2025).
± gives the uncertainty stated by the source.

B1: FERM and PDZ domain-containing protein 4, residues 75 to 154; numbered along this chain, Q14CM0 (parent)
chain: APRKVEMRRDPVLGFGFVAGSEKPVVVRSVTPGGPSEGKLIPGDQIVMINDEPVSAAPRERVIDLVRSCKESILLTVIQP

Variants of: B1
Test: abundance fitness (aPCA) (normalised: wild type 0, dead -1); higher = more abundant; growth selection in yeast, the domain comes from the species named
Settings: Homo sapiens

Variant | abundance fitness
L40R | -0.978 ± 0.035
L40N | -0.94 ± 0.087
L40E | -0.989 ± 0.054
L40M | -0.19 ± 0.029
L40Y | -1.02 ± 0.12
L40V | -0.156 ± 0.022
L40F | -0.8 ± 0.069
L40T | -0.846 ± 0.055
L40P | -0.928 ± 0.059
L40D | -0.965 ± 0.079
L40I | -0.125 ± 0.045
L40W | -1.07 ± 0.046
L40H | -1.07 ± 0.12
S36E | -0.866 ± 0.05
S36M | -0.567 ± 0.041
S36G | -0.05 ± 0.022
S36T | -0.477 ± 0.031
S36Y | -0.927 ± 0.096
S36C | -0.051 ± 0.032
S36D | -0.826 ± 0.072
S36A | 0.032 ± 0.023
S36V | -0.668 ± 0.033
S36K | -1.1 ± 0.087
S36Q | -0.81 ± 0.052

Variant | abundance fitness
S36H | -0.741 ± 0.074
S36L | -0.867 ± 0.041
S36R | -1.07 ± 0.042
S36F | -0.742 ± 0.067
S36N | -0.606 ± 0.062
N50Y | -0.162 ± 0.044
N50M | -0.187 ± 0.028
N50C | -0.2 ± 0.035
N50F | -0.145 ± 0.037
N50A | -0.143 ± 0.023
N50H | -0.11 ± 0.038
N50L | -0.361 ± 0.023
N50D | -0.035 ± 0.032
N50W | -0.173 ± 0.025
N50G | 0 ± 0.02
N50I | -0.607 ± 0.066
N50E | -0.054 ± 0.026
N50T | -0.597 ± 0.034
N50K | -0.223 ± 0.032
N50Q | -0.094 ± 0.028
N50P | -0.919 ± 0.05
N50S | -0.185 ± 0.024
N50V | -0.695 ± 0.029
I41C | -0.014 ± 0.031

Variant | abundance fitness
I41Q | -0.003 ± 0.028
I41W | -0.004 ± 0.025
I41D | -0.063 ± 0.036
I41Y | -0.011 ± 0.035
I41N | 0.032 ± 0.039
I41M | 0.03 ± 0.027
I41H | 0.028 ± 0.036
I41F | 0.043 ± 0.036
I41G | -0.084 ± 0.022
I41S | 0.033 ± 0.024
I41A | 0.005 ± 0.023
I41L | 0.024 ± 0.023
I41V | -0.009 ± 0.024
I41K | -0.008 ± 0.028
I41T | 0.013 ± 0.028
I41P | -0.925 ± 0.055
I41E | 0.015 ± 0.025
I49L | -0.111 ± 0.023
I49T | -0.708 ± 0.042
I49Y | -0.855 ± 0.076
I49M | -0.529 ± 0.034
I49W | -0.779 ± 0.036
I49P | -0.928 ± 0.056
I49C | -0.267 ± 0.031

Variant | abundance fitness
I49S | -0.929 ± 0.042
I49A | -0.581 ± 0.03
I49N | -0.847 ± 0.083
I49E | -0.894 ± 0.048
I49Q | -0.941 ± 0.059
I49R | -0.868 ± 0.031
I49D | -0.846 ± 0.07
I49G | -0.887 ± 0.034
I49F | -0.476 ± 0.042
I49H | -0.676 ± 0.069
I49V | 0.006 ± 0.023
E52H | -0.037 ± 0.038
E52I | -0.053 ± 0.04
E52W | -0.065 ± 0.023
E52Y | -0.045 ± 0.036
E52K | -0.066 ± 0.031
E52G | -0.321 ± 0.02
E52R | -0.053 ± 0.02
E52T | -0.037 ± 0.028
E52F | -0.083 ± 0.035
E52N | -0.048 ± 0.039
E52Q | -0.012 ± 0.028
E52S | -0.102 ± 0.024
E52D | -0.071 ± 0.032

Variant | abundance fitness
E52P | -0.861 ± 0.058
E52L | -0.026 ± 0.022
E52C | -0.069 ± 0.03
E52M | -0.038 ± 0.028
V47Q | -0.045 ± 0.04
V47T | -0.01 ± 0.032
V47R | -0.192 ± 0.033
V47D | -0.084 ± 0.048
V47H | -0.06 ± 0.043
V47Y | -0.019 ± 0.04
V47G | -0.426 ± 0.041
V47I | 0.018 ± 0.032
V47C | -0.032 ± 0.04
V47A | -0.112 ± 0.036
V47S | -0.098 ± 0.03
V47N | -0.175 ± 0.042
V47E | -0.083 ± 0.059
V47K | -0.114 ± 0.042
V47M | -0.03 ± 0.049
V47W | -0.128 ± 0.046
V47L | 0.012 ± 0.027
V47F | -0.118 ± 0.042
P35M | -0.355 ± 0.038
P35N | -0.213 ± 0.053

Variant | abundance fitness
P35V | -0.331 ± 0.028
P35T | -0.543 ± 0.039
P35Y | -0.708 ± 0.091
P35R | -0.486 ± 0.025
P35Q | -0.33 ± 0.038
P35W | -1.08 ± 0.074
P35S | -0.394 ± 0.033
D44K | -1.01 ± 0.069
D44M | -0.186 ± 0.029
D44A | -0.221 ± 0.023
D44R | -1.01 ± 0.037
D44Q | -0.369 ± 0.033
D44S | -0.264 ± 0.024
D44N | -0.418 ± 0.041
D44Y | -0.697 ± 0.052
D44E | -0.173 ± 0.025
D44P | -0.937 ± 0.058
D44H | -0.306 ± 0.079
D44F | -0.957 ± 0.093
D44C | -0.289 ± 0.033
D44W | -0.817 ± 0.037
D44G | -0.73 ± 0.026
V54G | -0.993 ± 0.066
V54S | -0.627 ± 0.031

Variant | abundance fitness
V54T | -0.13 ± 0.028
V54N | -0.945 ± 0.072
V54H | -0.942 ± 0.066
V54Y | -0.911 ± 0.058
V54P | -0.994 ± 0.06
V54F | -0.692 ± 0.044
V54A | -0.271 ± 0.031
V54Q | -0.647 ± 0.044
V54C | -0.03 ± 0.034
V54K | -1.21 ± 0.11
V54D | -0.928 ± 0.079
V54W | -1.07 ± 0.11
V54L | -0.207 ± 0.025
V54I | -0.117 ± 0.03
V54E | -0.771 ± 0.073
I46F | -0.255 ± 0.21
I46T | -0.113 ± 0.17
I46V | -0.014 ± 0.098
I46N | -0.679 ± 0.31
I46S | 0.073 ± 0.36
I46L | -0.051 ± 0.2
I46P | -0.611 ± 0.37
I46M | -0.293 ± 0.16
